Among the data in patent publication US7527809B2, “Polyhydroxyalkanoate-containing magnetic structure, and manufacturing method and use thereof” (Canon Kabushiki Kaisha, priority 2003, dated 2009) are Activity and Relative activity values, retold here.

The series can be described thus: PHA synthetic enzyme activity (CoA release, 5,5'-dithiobis-(2-nitrobenzoic acid)). It is filed as biochemical. The following applies: purified enzymes, Table 1. The source says:
Measurement of activity of PHA synthetic enzyme may be performed by using various known methods. For example, the measurement may be performed by the following method that is based on a measuring principle in that CoA released during polymerization of 3-hydroxyacyl CoA by the catalytic action of PHA synthetic enzyme to obtain PHA forms a color with 5,5′-dithiobis-(2-nitrobenzoic acid). Reagent 1: bovine serum albumin (manufactured by Sigma) dissolved in 0.1 M Tris hydrochloride buffer (pH 8.0) 3.0 mg/ml; Reagent 2: 3-hydroxyoctanoyl CoA dissolved in 0.1 M Tris hydrochloride buffer (pH 8.0) in 3.0 mM; Reagent 3: Trichloroacetic acid dissolved in 0.1 M Tris hydrochloride buffer (pH 8.0) in 10 mg/ml; Reagent 4: 5,5′-dithiobis-(2-nitrobenzoic acid) dissolved in 0.1 M Tris hydrochloride buffer (pH 8.0) in 2.0 mM. First reaction (PHA synthesis reaction): 100 μl of Reagent 1 is added to 100 μl of a sample (enzyme) solution and mixed. […] 500 μl of Reagent 4 is added to 500 μl of the resultant supernatant and the resultant is incubated at 30° C. for 10 minutes and then measured for optical density (absorbance) at 412 nm. […]
The activity of each purified enzyme was measured according to the method described above. Further, protein concentration in the sample was determined using a micro BCA protein assay reagent kit (available from Pierce Chemical Inc.). […]

B1: Purified enzyme solution (2): purified PHA synthetic enzyme YN2-C1 from pYN2-C1 (protein)
chain: MSNKSNDELKYQASENTLGLNPVVGLRGKDLLASARMVLRQAIKQPVHSVKHVAHFGLELKNVLLGKSGLQPTSDDRRFADPAWSQNPLYKRYLQTYLAWRKELHDWIDESNLAPKDVARGHFVINLMTEAMAPTNTAANPAAVKRFFETGGKSLLDGLSHLAKDLVHNGGMPSQVNMGAFEVGKSLGVTEGAVVFRNDVLELIQYKPTTEQVYERPLLVVPPQINKFYVFDLSPDKSLARFCLRNNVQTFIVSWRNPTKEQREWGLSTYIEALKEAVDVVTAITGSKDVNMLGACSGGITCTALLGHYAAIGENKVNALTLLVSVLDTTLDSDVALFVNEQTLEAAKRHSYQAGVLEGRDMAKVFAWMRPNDLIWNYWVNNYLLGNEPPVFDILFWNNDTTRLPAAFHGDLIELFKNNPLIRPNALEVCGTPIDLKQVTADIFSLAGTNDHITPWKSCYKSAQLFGGNVEFVLSSSGHIQSILNPPGNPKSRYMTSTEVAENADEWQANATKHTDSWWLHWQAWQAQRSGELKKSPTKLGSKAYPAGEAAPGTYVHER
modifications: Pseudomonas cichorii YN2; FERM BP-7375
Molecule B1 gave an Activity of 2.1 U/ml and a Relative activity of 4.1 U/mg protein.
